Article PMC11555092

Molecular target: HIV-1 CA hexamer (CA A14C/E45C/W184A/M185A mutant) (HIV-1)
Test: SEC; Superdex 10/300 GL increase column in 50 mM Tris pH 8; elution at 12.5 mL

“HIV-1 CA hexamer (CA A14C/E45C/W184A/M185A mutant) (complex)” showed a stoichiometry N of 6.
